From publication PMC11428563, “Systematic design and evaluation of aptamers for VEGF and PlGF biomarkers of Preeclampsia”

Assays:
Conditions in all cases: protein: commercial; tags: His; chain copies: 2
[1] = molecular target: T1, PlGF (Human PlGF / PGF (19-149) Protein, His Tag, Acrobiosystems PGF-H52H5) (human, UniProt P49763-2 19-149); assay: BLI; kon 1.772e4 1/Ms; koff 2.049e-1 1/s; BLI (Octet R4, anti-penta-His HIS1K sensors): protein loaded in phosphate buffer pH 7.4 (PlGF 2.5 ug/mL, VEGF 10 ug/mL); aptamers 0-20 uM in 1X Sartorius Kinetics Buffer; 1:1 global fit, triplicate; temperature not stated
T1 sequence: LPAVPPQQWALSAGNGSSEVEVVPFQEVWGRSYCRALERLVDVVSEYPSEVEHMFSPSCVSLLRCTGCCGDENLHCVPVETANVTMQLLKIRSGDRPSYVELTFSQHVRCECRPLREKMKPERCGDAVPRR

[2] = molecular target: T1, PlGF (Human PlGF / PGF (19-149) …); assay: BLI; kon 2.746e3 1/Ms; koff 5.548e-7 1/s; BLI (Octet R4, anti-penta-His HIS1K sensors): protein loaded in phosphate buffer pH 7.4 (PlGF 2.5 ug/mL, VEGF 10 ug/mL); aptamers 0-20 uM in 1X Sartorius Kinetics Buffer; 1:1 global fit, triplicate; temperature not stated
[3] = molecular target: T1, PlGF (Human PlGF / PGF (19-149) …); assay: BLI; kon 3.169e3 1/Ms; koff 2.150e-1 1/s; BLI (Octet R4, anti-penta-His HIS1K sensors): protein loaded in phosphate buffer pH 7.4 (PlGF 2.5 ug/mL, VEGF 10 ug/mL); aptamers 0-20 uM in 1X Sartorius Kinetics Buffer; 1:1 global fit, triplicate; temperature not stated

ACAGGCACA (ssRNA) [PlGF-Apt2] was tested, and the Kd [1] was 17.7 µM.

AGAGAACGCAAGAGA (ssRNA) [PlGF-Apt3] showed a Kd [2] of 0.000298 µM.

For CGAAGAGACGCAGAGAAGC (ssRNA) [PlGF-Apt4], the Kd [3] was 49.7 µM.
